Laboratory results taken from patent US20200317769A1.

Target: soluble cynomolgus monkey TNF-alpha (cynomolgus monkey) (UniProt P79337)
Experiment: cell-based or functional assay

soluble cynomolgus monkey TNF-alpha (cynomolgus monkey), sequence (P79337 77-233 limits assumed): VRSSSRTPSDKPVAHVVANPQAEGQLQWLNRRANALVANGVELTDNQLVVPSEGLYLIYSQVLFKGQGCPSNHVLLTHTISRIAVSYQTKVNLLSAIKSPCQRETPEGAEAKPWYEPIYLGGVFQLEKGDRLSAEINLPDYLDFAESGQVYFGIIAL

In the case of adalimumab (antibody), the Inhibition of cynomolgus TNF-induced L929 cell cytotoxicity EC50 is reported as 40 pM.
